# Test results taken from patent US20240076392A1, “ANTI-CD123 BINDING MOLECULES AND USES THEREOF” (IGM Biosciences, Inc., priority 2021, published 2024).
# T1: human CD123 on CHO cells (Homo sapiens, UniProt P26951)
# T1 construct: expressed in transfected cells; host or cells: CHO cells
# T1 sequence (P26951 19-378): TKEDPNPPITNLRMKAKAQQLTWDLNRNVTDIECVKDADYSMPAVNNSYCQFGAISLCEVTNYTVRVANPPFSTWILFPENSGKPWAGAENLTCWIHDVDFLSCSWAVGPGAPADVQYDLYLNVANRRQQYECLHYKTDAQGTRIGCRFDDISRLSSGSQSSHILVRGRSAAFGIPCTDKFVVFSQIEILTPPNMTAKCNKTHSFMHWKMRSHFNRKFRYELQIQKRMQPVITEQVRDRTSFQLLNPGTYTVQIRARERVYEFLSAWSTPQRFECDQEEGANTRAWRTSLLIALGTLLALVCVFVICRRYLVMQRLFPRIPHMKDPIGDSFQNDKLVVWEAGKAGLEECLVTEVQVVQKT
# T2: recombinant human CD123 protein (CD123)-His (Homo sapiens, UniProt P26951)
# T2 construct: purchased Acrobio (Acro Biosystems) ILA-H52H6
# T2 sequence (P26951 19-378): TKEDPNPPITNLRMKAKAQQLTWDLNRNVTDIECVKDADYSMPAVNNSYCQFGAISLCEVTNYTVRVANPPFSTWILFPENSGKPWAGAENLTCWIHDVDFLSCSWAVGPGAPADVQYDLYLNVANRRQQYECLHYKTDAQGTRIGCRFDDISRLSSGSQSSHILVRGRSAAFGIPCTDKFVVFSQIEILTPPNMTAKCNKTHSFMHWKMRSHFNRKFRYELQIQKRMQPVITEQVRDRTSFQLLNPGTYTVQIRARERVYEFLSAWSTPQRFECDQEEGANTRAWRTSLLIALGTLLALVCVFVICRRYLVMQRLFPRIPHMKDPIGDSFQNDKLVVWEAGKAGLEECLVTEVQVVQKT
# What was measured:
# human CD123 on CHO cells = biological target: T1, human CD123 on CHO cells; assay: Flow cytometry binding of IgG antibodies to CD123 expressing CHO cells; details: 4-parameter logistic model; for Max binding intensity (MFI): flow cytometry
# Experimental: To assess the ability of IgG antibodies to bind CD123 on CHO cells expressing the human CD123, a binding assay was performed. CHO cells expressing human CD123 were detached from flask using trypsin. Cells (1×105) were pipetted into wells in a round bottom 96 well plate, washed with FACS Stain Buffer (BD Pharmigen Catalog #554656) and pre-incubated with Fc Block (BD, #564220) for 10 minutes at room temperature followed by incubation at 4° C. with serial dilutions of 32716 or h32716 IgG antibodies for 30 minutes. Cells were washed twice and stained with a mouse anti human kappa antibody conjugated with Alexa647 (Southern Biotech, clone SB81a). Cells were analyzed by flow cytometry. Mean fluorescence intensity (MFI) values were analyzed with GraphPad Prism using a 4-parameter logistic model. All humanized IgG antibodies of 32716 anti-CD123 bound with similar affinities and intensities.
# [1] = biological target: T2, recombinant human CD123 protein (CD123)-His; assay: Biolayer interferometry (Octet) affinity measurement of IgG antibodies; format: binding; details: IgG format
# Experimental: The binding affinities of parental 32716 IgG and humanized variants with recombinant human CD123 protein (CD123)-His Acrobio #ILA-H52H6) were determined by BLI on an Octet-384 (Sartorius/Fortebio, NY, USA) using Anti-penta His biosensors (Sartorius). PBST (1×PBS+1% BSA+0.05% Tween-20) buffer was used as Antibody/CD123 dilution and sensor hydration buffer. The experiment followed a five-step sequential assay at 24° C. First, biosensors were hydrated for 10 minutes. Samples and buffer were applied in 384-well plate. After initial baseline for 60 s, sensors were loaded with 7 nM hu IL-3R alpha (CD123)-His Acrobio #ILA-H52H6. The biosensors were dipped into PBST for 20 s to reach baseline, then incubated for 420 s with 2-fold serial diluted anti-CD123 antibodies starting at 10 nM for association, followed by 900 s in PBST for dissociation. Results were analyzed by ForteBio Data Analysis software 9.0 using 1:1 global fit model.
HillSlope (human CD123 on CHO cells),Max binding intensity (MFI) (human CD123 on CHO cells),affinity compared to the original murine IgG antibody [1],Molecule
2.2,910000,–,"32716 IgG: parental (mouse) anti-CD123 antibody 32716 VH/VL (SEQ ID NO: 74/75) cloned into human IgG format (antibody, V domains shown, human IgG constant regions) VH: QIQLVQSGPELKKPGETVKISCKASGYIFTNYGMNWVKQAPGKSFKWMGWINTYTGESTYSADFKGRFAFSLETSASTAYLHINDLKNEDTATYFCARSGGYDPMDYWGQGTSVTVSS VL: DIVLTQSPASLAVSLGQRATISCRASESVDNYGNTFMHWYQQKPGQPPKLLIYRASNLESGIPARFSGSGSRTDFTLTINPVEADDVATYYCQQSNEDPPTFGAGTKLELK"
1.9,940000,slightly better affinity,"h32716-3-1 IgG: humanized 32716 anti-CD123 IgG, VH SEQ ID NO: 78, VL SEQ ID NO: 79 (antibody, V domains shown) VH: QVQLVQSGAEVKKPGSSVKVSCKASGYIFTNYGMNWVKQAPGQGFKWMGWINTYTGESTYSADFKGRFTFTLDESTSTAYMELSSLRSEDTAVYYCARSGGYDPMDYWGQGTLVTVSS VL: DIVMTQSPDSLAVSLGERATINCRASESVDNYGNTFMHWYQQKPGQPPKLLIYRASNLESGVPDRFSGSGSGTDFTLTISSLQAEDVAVYYCQQSNEDPPTFGQGTRLEIK"
2.0,950000,–,"h32716-1-1 IgG: humanized 32716 anti-CD123 IgG, VH SEQ ID NO: 76, VL SEQ ID NO: 79 (antibody, V domains shown) VH: QVQLVQSGAEVKKPGSSVKVSCKASGYIFTNYGMNWVRQAPGQGLEWMGWINTYTGESTYSADFKGRVTITADESTSTAYMELSSLRSEDTAVYYCARSGGYDPMDYWGQGTLVTVSS VL: DIVMTQSPDSLAVSLGERATINCRASESVDNYGNTFMHWYQQKPGQPPKLLIYRASNLESGVPDRFSGSGSGTDFTLTISSLQAEDVAVYYCQQSNEDPPTFGQGTRLEIK"
1.7,930000,–,"h32716-2-1 IgG: humanized 32716 anti-CD123 IgG, VH SEQ ID NO: 77, VL SEQ ID NO: 79 (antibody, V domains shown) VH: QVQLVQSGAEVKKPGSSVKVSCKASGYIFTNYGMNWVKQAPGQGLEWMGWINTYTGESTYSADFKGRFTFTLDESTSTAYMELSSLRSEDTAVYYCARSGGYDPMDYWGQGTLVTVSS VL: DIVMTQSPDSLAVSLGERATINCRASESVDNYGNTFMHWYQQKPGQPPKLLIYRASNLESGVPDRFSGSGSGTDFTLTISSLQAEDVAVYYCQQSNEDPPTFGQGTRLEIK"
2.4,980000,–,"h32716-4-2 IgG: humanized 32716 anti-CD123 IgG, VH SEQ ID NO: 80, VL SEQ ID NO: 83 (antibody, V domains shown) VH: QVQLVQSGPELKKPGASVKVSCKASGYIFTNYGMNWVRQAPGQGLEWMGWINTYTGESTYSADFKGRFVFSLDTSVSTAYLQISSLKAEDTAVYYCARSGGYDPMDYWGQGTLVTVSS VL: DIQMTQSPSSLSASVGDRVTITCRASESVDNYGNTFMHWYQQKPGKAPKLLIYRASNLESGVPSRFSGSGSGTDFTFTISSLQPEDIATYYCQQSNEDPPTFGQGTKVEIK"
2.2,1100000,–,"h32716-5-2 IgG: humanized 32716 anti-CD123 IgG, VH SEQ ID NO: 81, VL SEQ ID NO: 83 (antibody, V domains shown) VH: QVQLVQSGPELKKPGASVKVSCKASGYIFTNYGMNWVKQAPGQGLEWMGWINTYTGESTYSADFKGRFVFSLDTSVSTAYLQISSLKAEDTAVYYCARSGGYDPMDYWGQGTLVTVSS VL: DIQMTQSPSSLSASVGDRVTITCRASESVDNYGNTFMHWYQQKPGKAPKLLIYRASNLESGVPSRFSGSGSGTDFTFTISSLQPEDIATYYCQQSNEDPPTFGQGTKVEIK"
1.9,1000000,–,"h32716-6-2 IgG: humanized 32716 anti-CD123 IgG, VH SEQ ID NO: 82, VL SEQ ID NO: 83 (antibody, V domains shown) VH: QVQLVQSGPELKKPGASVKVSCKASGYIFTNYGMNWVKQAPGQGFKWMGWINTYTGESTYSADFKGRFVFSLDTSVSTAYLQISSLKAEDTAVYYCARSGGYDPMDYWGQGTLVTVSS VL: DIQMTQSPSSLSASVGDRVTITCRASESVDNYGNTFMHWYQQKPGKAPKLLIYRASNLESGVPSRFSGSGSGTDFTFTISSLQPEDIATYYCQQSNEDPPTFGQGTKVEIK"
